Target: TNFR2 (human TNFR2, SEQ ID NO: 1) (human) (UniProt P20333)
Assay: surface plasmon resonance (Pioneer SensiQ)

UniProt P20333, sequence (P20333 23-257 limits assumed): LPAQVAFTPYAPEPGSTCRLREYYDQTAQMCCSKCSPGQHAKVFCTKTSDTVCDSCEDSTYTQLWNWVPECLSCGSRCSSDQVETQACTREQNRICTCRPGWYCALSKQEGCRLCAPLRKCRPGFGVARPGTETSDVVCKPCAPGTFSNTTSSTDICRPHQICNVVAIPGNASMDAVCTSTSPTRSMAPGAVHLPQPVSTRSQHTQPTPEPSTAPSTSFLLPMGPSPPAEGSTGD

Clone MAB726 (R&D Systems, Inc.) anti-TNFR2 antagonist monoclonal antibody
Kd: 0.621 nM

Reference: US20190330359A1
